Reference: PMC10757996

Assays:
[1] = target: Arginylglycylaspartic acid (RGD) peptide grafted on poly-L-lysine-graft-poly(ethylene glycol) (PLL-g-PEG/PEG-RGD); assay: SPR; Goos-Hänchen lateral position shift read-out on a silver-GST plasmonic substrate; PLL-PEG-RGD immobilised on the GST layer through MPTES; 10 μg/mL integrin proteoliposomes flowed over; running buffer 1:10 dilution of PBS; lowest Mn2+ concentration of the series (1 nM); exponential fits of association and dissociation
[2] = target: Arginylglycylaspartic acid (RGD) peptide grafted on poly-L-lysine-graft-poly(ethylene glycol) (PLL-g-PEG/PEG-RGD); assay: SPR; Goos-Hänchen lateral position shift read-out on a silver-GST plasmonic substrate; PLL-PEG-RGD immobilised on the GST layer through MPTES; 10 μg/mL integrin proteoliposomes flowed over; running buffer 1:10 dilution of PBS; highest Mn2+ concentration of the series (1 mM); exponential fits of association and dissociation

- kobs [1]: 0.101 min⁻¹
- koff [1]: 0.00957 s⁻¹
- kobs [2]: 0.146 min⁻¹
- koff [2]: 0.00448 s⁻¹
Substance: αIIbβ3 integrin reconstituted into liposomes (integrin-embedded proteoliposomes) (from UniProt P08514 32-1039; P05106 27-788) (complex)
